T1: EsCas13d, nuclease-dead (Eubacterium siraeum, UniProt B0MS50, R295A;H300A;R849A;H854A)
T1 sequence: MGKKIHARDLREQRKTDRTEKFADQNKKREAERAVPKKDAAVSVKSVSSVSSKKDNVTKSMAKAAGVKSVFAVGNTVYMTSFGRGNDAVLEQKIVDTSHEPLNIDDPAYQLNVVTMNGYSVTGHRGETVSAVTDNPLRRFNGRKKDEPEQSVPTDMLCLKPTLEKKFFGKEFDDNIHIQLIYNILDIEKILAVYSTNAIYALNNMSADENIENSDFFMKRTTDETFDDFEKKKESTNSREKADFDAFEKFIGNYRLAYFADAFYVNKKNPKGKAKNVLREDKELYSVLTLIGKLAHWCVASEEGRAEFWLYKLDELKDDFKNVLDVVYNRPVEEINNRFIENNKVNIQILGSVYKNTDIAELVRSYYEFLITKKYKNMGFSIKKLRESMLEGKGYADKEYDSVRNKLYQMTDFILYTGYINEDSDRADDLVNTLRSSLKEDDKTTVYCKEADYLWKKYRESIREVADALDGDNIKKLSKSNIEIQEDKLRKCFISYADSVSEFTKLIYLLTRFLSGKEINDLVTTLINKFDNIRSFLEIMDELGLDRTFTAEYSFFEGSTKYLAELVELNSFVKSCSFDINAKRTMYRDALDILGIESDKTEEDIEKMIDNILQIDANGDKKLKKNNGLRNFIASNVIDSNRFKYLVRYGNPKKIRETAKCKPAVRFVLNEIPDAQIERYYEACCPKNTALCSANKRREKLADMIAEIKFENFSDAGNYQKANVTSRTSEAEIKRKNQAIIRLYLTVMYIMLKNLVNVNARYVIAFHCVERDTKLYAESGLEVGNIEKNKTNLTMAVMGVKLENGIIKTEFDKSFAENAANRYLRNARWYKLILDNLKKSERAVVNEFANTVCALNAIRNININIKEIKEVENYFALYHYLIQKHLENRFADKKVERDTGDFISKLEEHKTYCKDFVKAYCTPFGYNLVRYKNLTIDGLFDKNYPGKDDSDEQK

B1: target 1 U8C,G12U (mixed)
RNA 1: CACCCGUGCAAAAAUGCAGGGGUCUAAAACUGAGCGGAUAACCUCUCUAUGG
RNA 2: GGGAAUGGAUCCACAUCUACGAAUUCGUACCAUAGAGAGUUUACCCGCUCACCGAGAUCGGAAGAGCACACGU
B2: target 1 insA 3' of 10,insG 3' of 2 (mixed)
RNA 1: B1 RNA 1
RNA 2: GGGAAUGGAUCCACAUCUACGAAUUCGUACCAUAGAGAGGUUAAUCCGCUCGACCGAGAUCGGAAGAGCACACGU
B3: target 1 insU 3' of 7,insC 3' of 1 (mixed)
RNA 1: B1 RNA 1
RNA 2: B2 RNA 2 with A44U, U45C, C46U, G52A, A53C
B4: target 1 insU 3' of 7,insG 3' of 4 (mixed)
RNA 1: B1 RNA 1
RNA 2: B2 RNA 2 with A44U, U45C, C46U, U50G, C51U, G52C
B5: target 1 insG 3' of 10,insU 3' of 6 (mixed)
RNA 1: B1 RNA 1
RNA 2: B2 RNA 2 with A43G, G48U, C49G, U50C, C51U, G52C
B6: target 1 insU 3' of 21,insC 3' of 20 (mixed)
RNA 1: B1 RNA 1
RNA 2: GGGAAUGGAUCCACAUCUACGAAUUCGUACCUACUAGAGAGGUUAUCCGCUCACCGAGAUCGGAAGAGCACACGU
B7: target 1 insG 3' of 7,insG 3' of 7 (mixed)
RNA 1: B1 RNA 1
RNA 2: B2 RNA 2 with A44U, U45C, C46G, C47G, G48C, C49G, U50C, C51U, G52C
B8: target 1 A20U,C21U (mixed)
RNA 1: B1 RNA 1
RNA 2: B1 RNA 2 with C31U, A32U, U40G, C44U
B9: target 1 A9G,A16C (mixed)
RNA 1: B1 RNA 1
RNA 2: B1 RNA 2 with A36C, U40G, A43G, C44U
B10: target 1 complement block 5-13 (mixed)
RNA 1: B1 RNA 1
RNA 2: B1 RNA 2 with G39C, U40C, U41A, U42A, A43U, C44A, C45G, C46G, G47C
B11: target 1 U19A,A20U (mixed)
RNA 1: B1 RNA 1
RNA 2: B1 RNA 2 with A32U, U33A, U40G, C44U
B12: target 1 insU 3' of 18,insC 3' of 8 (mixed)
RNA 1: B1 RNA 1
RNA 2: GGGAAUGGAUCCACAUCUACGAAUUCGUACCAUAUGAGAGGUUAUCCCGCUCACCGAGAUCGGAAGAGCACACGU
B13: target 1 insA 3' of 21,insG 3' of 2 (mixed)
RNA 1: B1 RNA 1
RNA 2: B12 RNA 2 with U33A, A34U, U35A, C48G, G49C, C50U, U51C, C52G
B14: target 1 U11A,C21U (mixed)
RNA 1: B1 RNA 1
RNA 2: B1 RNA 2 with C31U, U40G, U41A, C44U
B15: target 1 insU 3' of 13,insC 3' of 13 (mixed)
RNA 1: B1 RNA 1
RNA 2: B6 RNA 2 with U32A, A33U, C34A, U35G, A40U, G41C
B16: target 1 A9C,G12A (mixed)
RNA 1: B1 RNA 1
RNA 2: B1 RNA 2 with U40A, A43C, C44U
B17: target 1 C7G,A14G (mixed)
RNA 1: B1 RNA 1
RNA 2: B1 RNA 2 with A38G, U40G, C44U, C45G
B18: target 1 del13,del17 (mixed)
RNA 1: B1 RNA 1
RNA 2: GGGAAUGGAUCCACAUCUACGAAUUCGUACCAUAAGAGUUAUCCGCUCACCGAGAUCGGAAGAGCACACGU
B19: target 1 U3C,G5U (mixed)
RNA 1: B1 RNA 1
RNA 2: B1 RNA 2 with U40G, C44U, G47U, U49C
B20: target 1 insU 3' of 7,insU 3' of 5 (mixed)
RNA 1: B1 RNA 1
RNA 2: B2 RNA 2 with A44U, U45C, C46U, C49U, U50C, C51U, G52C
B21: target 1 C4U,A9U (mixed)
RNA 1: B1 RNA 1
RNA 2: B1 RNA 2 with U40G, A43U, C44U, C48U
B22: target 1 insC 3' of 19,insG 3' of 8 (mixed)
RNA 1: B1 RNA 1
RNA 2: B12 RNA 2 with A34C, U35A, C46G
B23: target 1 A9U,G12U (mixed)
RNA 1: B1 RNA 1
RNA 2: B1 RNA 2 with A43U, C44U
B24: target 1 G5C,A9G (mixed)
RNA 1: B1 RNA 1
RNA 2: B1 RNA 2 with U40G, A43G, C44U, G47C
B25: target 1 A1U,G15U (mixed)
RNA 1: B1 RNA 1
RNA 2: B1 RNA 2 with G37U, U40G, C44U, A51U
B26: target 1 C7G,U10C (mixed)
RNA 1: B1 RNA 1
RNA 2: B1 RNA 2 with U40G, U42C, C44U, C45G
B27: target 1 insG 3' of 19,insA 3' of 10 (mixed)
RNA 1: B1 RNA 1
RNA 2: B12 RNA 2 with A34G, U35A, U45A, C46U
B28: target 1 C7A,U11C (mixed)
RNA 1: B1 RNA 1
RNA 2: B1 RNA 2 with U40G, U41C, C44U, C45A
B29: target 1 U11G,C21A (mixed)
RNA 1: B1 RNA 1
RNA 2: B1 RNA 2 with C31A, U40G, U41G, C44U
B30: target 1 insU 3' of 18,insG 3' of 14 (mixed)
RNA 1: B1 RNA 1
RNA 2: B12 RNA 2 with U42G, A44U, U45A, C46U
B31: target 1 del9,del14 (mixed)
RNA 1: B1 RNA 1
RNA 2: B18 RNA 2 with A35G, G36A, A37G, U39G, A41U
B32: target 1 C7G,A20U (mixed)
RNA 1: B1 RNA 1
RNA 2: B1 RNA 2 with A32U, U40G, C44U, C45G

Where a chain is given by its changes, count along the chain named. In names and notes the source's numbering stands.

This series deals with T1, EsCas13d, nuclease-dead. Put plainly: crRNA (strand 1, pre-loaded); Mg2+; 40 mM Tris-HCl pH 7.5, 150 mM NaCl, 6 mM MgCl2, 1 mM DTT, 0.1% Tween-20, 0.2 mg/ml BSA; 25 C; 10 min per concentration, then washed. Particulars: tags: His6-TwinStrep-SUMO cleaved; N-terminal SNAP kept (SNAP-Surface 488); label: 3' end held by stalled T7 RNA polymerase.
Turning to B1, the Kd (usually the concentration at which binding is half-saturated) is 10.7 ± 0.6 nM. With B2 the figure was 12.4 ± 0.7 nM. For B3 the value was 13.9 ± 0.6 nM. For B4 the value was 7.41 ± 0.26 nM; for B5, 36.8 ± 3.1 nM. Molecule B6 displayed a Kd of 13.5 ± 1 nM. For B7 the value was 9.8 ± 0.5 nM; for B8, 19.5 ± 1.2 nM; for B9, 36.4 ± 1.8 nM.

With B10, the Kd was ~80 nM. With B11 the figure was 47 ± 4 nM. Molecule B12 displayed a Kd of 53 ± 4 nM. With B13 the figure was 16 ± 0.9 nM; with B14, 8.3 ± 0.5 nM.

In turn, B15 had a Kd of 8.6 ± 0.5 nM. For B16 the value was 16.6 ± 1.9 nM; for B17, 17.7 ± 1.2 nM. For B18 the value was 55 ± 20 nM; for B19, 42 ± 9 nM; for B20, 14.5 ± 0.5 nM. For B21 the value was 50 ± 16 nM. For B22, binding was put at a Kd of 45 ± 7 nM. With B23 the figure was 10.9 ± 1.1 nM; with B24, 8.9 ± 0.5 nM. For B25 the value was 25.9 ± 3 nM.

Take B26: the Kd was determined as 24.6 ± 2.2 nM.

B27 came in with a Kd of 59 ± 5 nM. Regarding B28, the Kd was found to be 8.4 ± 0.4 nM.

B29 had a Kd of 64 ± 12 nM. For B30 the value was 46 ± 3 nM; for B31, 28 ± 1.8 nM. B32 yielded a Kd of 47 ± 6 nM.

The record behind these values is paper PMC10786891, “Massively parallel profiling of RNA-targeting CRISPR-Cas13d”.
